Reference: US20240358850A1

Molecular target: denatured collagen type-IV
Assay: cell-based or functional assay

inhibition of B16F10 melanoma cell adhesion to denatured collagen type-IV coated wells (antibody 100 µg/ml) [%]	Binder
> 40	Humanized anti-HU177 antibody (antibody, human IgG1, kappa, V domains shown) VH: QVTLKESGPALVKPTQTLTLTCTFSGFSLSTPGMGVWWIRQPPGKALEWLADIWWDDNKYTNPSLKSRLTISKDTSKNQVVLTMTNMDPVDTATYYCARRANYGNPYYAQDYWGQGTTVTVSS VL: DIVMTQTPLSLPVTPGEPASISCRSSQSIVSSWGNTYLEWYLQKPGQSPQLLIYKVSNRFSGVPDRFSGSGSGTDFTLKISRVEAEDVGVYYCFQGSHVPWTFGQGTKVEIKR
> 40	MMAE-conjugated anti-HU177 antibody (Anti-HU177-MMAE) (antibody, V domains shown, MMAE conjugated with the Perkit Antibody MMAE Conjugation Kit; conjugation sites and chain not stated) VH: QVTLKESGPALVKPTQTLTLTCTFSGFSLSTPGMGVWWIRQPPGKALEWLADIWWDDNKYTNPSLKSRLTISKDTSKNQVVLTMTNMDPVDTATYYCARRANYGNPYYAQDYWGQGTTVTVSS VL: DIVMTQTPLSLPVTPGEPASISCRSSQSIVSSWGNTYLEWYLQKPGQSPQLLIYKVSNRFSGVPDRFSGSGSGTDFTLKISRVEAEDVGVYYCFQGSHVPWTFGQGTKVEIKR
